Results taken from article PMC6376064.

Biological target: Nrf2 (UniProt Q60795)
Assay: anti-Flag (Nrf2) co-IP, immunoblot
Conditions: reference: Keap1 wild type; sites T51,S53,T55,T80

How did the “binding against the reference” value turn out when Keap1 (from UniProt Q9Z2X8) Keap1 4A was run?
The value was “stronger”.
